Data taken from the DeepSol protein solubility set.

Test: soluble on expression in E. coli; label from the status in PepcDB or PDB records

Sequence: MREELIEKIKKAGVVGAGGAGFPTHVKVNSKARTVLVNGAECEPLLRVDQQLMAGQASKVVMGLELVMSVTGAKEGIISLKHKYHDAISALEKEISGKPIRIHILDDFYPAGDEHVTVYESTGRLVPQGSIPLKVDCVVHNVETLLNTVDAVADQPVTDTYLTITGEVNQPLTLRLPIGTAISEALAMAGYHDSGGMQVIEGGPMMGKIVADLHQPITKTTKGLIVLPREHPLLRLKTLPADKVLRQSRVSCVQCRFCTDLCPRYLLGHQLEPHKIMRMVNYGQGQEETMKMAFACSECGVCEQYACIMGLSPRAVNALLKKELTRLGIKPSPSPADQAVDPLQPHRKIPVKRLISRLALQDYDRNAPLQERDYPIDRVAIKLCQHVGAPSVPTVKAGQKVKKGDPIASPPAKGLGSYLHASIDGVVQEITDSILISARKGSETQPWNPSV
- soluble on expression in E. coli: not soluble

Sequence: MGSDKIHHHHHHMLEQFHIHADLKQQLSTIHEKNKQEAGENAHLIGTKIYKASDNSIIEDAITALLLGKNILLKGPTGSGKTVLAETLSSLFQKPMHSINCSVDLDVEGILGYNTLQTKDGASEVAFVNGPLMKAMKNGHFLYIDEINMAKPETLPLLHGALDYRKMITNPFTQEVVYGDDEYRVIAAINEGYVGTSELNEALKNRFVIIEVPYIQGDTLKELLLAESKLNDVTTIEKFVAFASDLMPLARDGRVSEEAASIRGIIDACDLGVYIPVMRAIERSIIAKLNDETEQMTVRELAESYFFEG
- soluble on expression in E. coli: not soluble

Sequence: MGSDKIHHHHHHMMEEYLGVFVDETKEYLQNLNDTLLELEKNPEDMELINEAFRALHTLKGMAGTMGFSSMAKLCHTLENILDKARNSEIKITSDLLDKIFAGVDMITRMVDKIVSEGSDDIGENIDVFSDTIKSFASSGKEKPSEIKNETETKGEEEHKGESTSNEEVVVLPEEVAHVLQEARNKGFKTFYIKVILKEGTQLKSARIYLVFHKLEELKCEVVRTIPSVEEIEEEKFENEVELFVISPVDLEKLSEALSSIADIERVIIKEVTAVTEESGAEKRTEKEEKTEKTEEKAERKKVISQTVRVDIEKLDNLMDLMGELVIARSRILETLKKYNIKELDESLSHLSRITLDLQNVVMKIRMVPISFVFNRFPRMVRDLAKKMNKEVNFIMRGEDTELDRTFVEEIGEPLLHLLRNAIDHGIEPKEERIAKGKPPIGTLILSARHEGNNVVIEVEDDGRGIDKEKIIRKAIEKGLIDESKAATLSDQEILNFLFVPGFSTKEKVSEVSGRGVGMDVVKNVVESLNGSISIESEKDKGTKVTIRLPLTLAIIQALLVKVNNLVYAIPIANIDTILSISKEDIQRVQDRDVIVIRGEVIPVYRLWEVLQIEHKEELEEMEAVIVRVGNRKYGIVVDDLLGQDDIVIKSLGKVFSEVKEFSGAAILGDGSIALIINVSGIV
- soluble on expression in E. coli: not soluble

Sequence: MPNFFKFHTVIERHWQKPYPVLSFLLKPLSGLFAKIAAKWRADFLSGKRQSEKLSVPVVVVGNIHAGGTGKTPIAAALVSGLQEKGVKVGIISRGYGRKSKAVYVLNAASRAEDAGDEPLLLFRKTGAPTAVGSSRVEAGRALLAAHPELELIVADDGLQHYALQRDVEIAVFPAADTGRTDLDLLPNGNLREPLSRLESVDAVVVGGRAADGFMPSEHLFGSRIEAGAVYRLNRPSEKLDISTLSGKRVAAVAGIARPQRFFDTLTHMGIRLDQTVALPDHADIFNRDLPPADVVLVTEKDAVKFSDGICTDNVWVLPVCAIIEPDLAEFVLERLEGVPKAVLEHHHHHH
- soluble on expression in E. coli: not soluble

Sequence: MLLLRITMLEGRSTEQKAELARALSAAAAAAFDVPLAEVRLIIQEVPPTHWTVGGISMAELRQQASTSTQGQ
- soluble on expression in E. coli: soluble

Sequence: MKSKLKLHGFNNLTKTLSFNIYDICYAETPEDLQAYVQYIDEEYDAERLTQILTDVVDIIGANILNIARQDYDPQGASVTILISEQPVTPTDSQIEESPGPLPDTILAHLDKSHITVHTYPEIHPVDGIATFRVDIDVSTCGVISPLKALNYLIHQFDSDIVTVDYRVRGFTRDIEGRKHFIDHEINSIQNYLSDDTREAYQMTDVNVYQENLFHTKMLLKDFELENYLFGDATRTLSAEQREQVTERLKHEMLEIFYARNMPR
- soluble on expression in E. coli: not soluble

Sequence: MSLVSYVEVIKNGETISSCFQPFQKNENYGTITSANEQITPVIFHNLIMDMVLPKVVPIKGNKVTKMSMNLIDGFDCFYSTDDHDPKTVYVCFTLVDMPKILPIRILSGLQEYESNATNELLSSHVGQILDSFHEELVEYRNQTLNSSGNGQSSNGNGQNTISDIGDATEDQIKDVIQIMNDNIDKFLERQERVSLLVDKTSQLNSSSNKFRRKAVNIKEIMWWQKVKNITLLTFTIILEGHHHHHH
- soluble on expression in E. coli: soluble

Sequence: MSETPLLFQTRDYRGATIEDLNIPLAVSINPTTSIYEAIGIAFENEFTYLPVIHERTKRLLGVINIEELKSNGDKLKRSILAPIVKSYMIWFNQSAKRKYEQENKEVLSSNRTAPKTTILKPRGKRYEVLTPMTPLEKLAEFFNSGNYFAIVTNGHGDFVYGVVTPQDLMKYEQSRPKL
- soluble on expression in E. coli: soluble

Sequence: MAEKKKDEKETKETENFILKLSAETVLFSNAKLGDEVTTTVLKMTNPTTDKCAFKVKCTSNDLFKIKTPVGYIKPDETIDIPLCHNPGKAIPENNKQYFAFYYIKTKEDGPARDAWKNHKPDGMKRIYISFKKGDEKGDEKKDEKKEEKKEEKKEEKKEDKKDDKKEAKKEEKKEEKKEEKKEEKKEEKKEEKKEEKNDENKEEKKEEKKDEKKEEKKVEEAKK
- soluble on expression in E. coli: soluble

Sequence: MKIAHISDLHVKCEWYEDRLGNNLVKYLNAQKPDLLIITGDLTDYGYYAEYKRAYSFLELIEVEKRVVVPGNHDARNEGYELFEEFFGTRMPYYEDEYMVIIGMDSSLPDREEGHIGRKGYKFLRETLKDKGDKLKIVALHHHVVPIPATGSDLAILTDAGNLMKVVDELGVELVLTGHKHKAWVWKLNETYYVTAGTATTRRLKAKDYPSFYMLYLEDEKNIRMEKVNTETLKVEEVYTLNFEEGKER
- soluble on expression in E. coli: not soluble

Sequence: MAHHHHHHMQPRHFHVCNFLLTCSCERGHPRVRCLRFAALRFAKPHFALLCRTSLCFFFATPTRAELATDGLKGRIYEVNLADLNNDEDQAHKKIKLCCDHIINKDCYTDFCGLSITRDKLCSLIRKGYTLIEGYTDVKTIDNYQLRMFCIAFTKKRPNQTKTTCYAQTSQIKKIRKKMVDIMNAEASKVMLKDLVKKFIPESIGKEVEKQCKKIYPLQNVLIRKVKILKRPKLDISKLMELHTDSKEDAGKNVKSLPESKEATNILSAELKH
- soluble on expression in E. coli: soluble

Sequence: MGKLAADQLTLSYDSTVIIDGVDLKIEEGKITALIGANGCGKSTILKSLARLMAPKSGTVLLEGKDIHRQPSKEVAKKLAILPQSPQAPEGLTVEELCYFGRHPHKKLLSKHTQEDHDMVEWALEATGMIELKDRTLDALSGGQRQRAWISMALAQGTDLLLLDEPTTYLDISHQIEVLELLKKLNRDHGRTVVMVLHDLNQAAQYADYLISVLDGKIYNAGTPEDVFTQPFFREVFGLECCIMRSPIDQKPMCLPTGLCPKLRAK
- soluble on expression in E. coli: not soluble

Sequence: MGYNETIYHKPFIKINMPDVLGKPDATQIPDDVWLDILINYLQPQDIVNLSEINNRLSRLFKTQHTQSEQLNQKKTLGILKVFAGYSSTFLFARLNGKQRLFKTRNWSAADSDNINPILMPISLPENISVIESIQSTYKHTVVVGRDKHDQIIVATNKINQDYAKQETSHNQLIPLPLRDINISLVSAGNEEDYILNPIFSFPATQQGNCILNCIK
- soluble on expression in E. coli: not soluble

Sequence: GMTDTNLVEMRAIERMMFDYSYHLDMNHPEELAALFVEDCEVSYAPNFGATGRDAYKKTLEGIGTFFRGTSHHNSNICIDFVSETEANVRSVVLAIHRYTKERPDGILYGQYFDTVVKVDGQWKFKRRELRTTMTTDYHVRAANPIGRAE
- soluble on expression in E. coli: soluble

Sequence: MGSDKIHHHHHHMSDNLPKKQPRTAPPEARREQLIDATITAISTYGLSGTTLAKVTAEAGLSLGLVNFHFKSKEALLTATLTHLADEHRALWFTRSSQPDVSAADKLKLIVDAQFHAKICNRRKLSVWFAFFGESRPRKAYRELTGPLDEERQIATSRLCADIIAEGGYSGIDSDTVSAMLESLFDGFWLNILMYPDRFTRQSAKAQVLSYLRLCFPQHFTCLDAETFA
- soluble on expression in E. coli: not soluble

Sequence: MSRRLPPLNSLRVFEAAARHLSFTRAAEELFVTQAAVSHQIKALEEFLGLKLFRRRNRSLLLTEEGQSYFLDIKEIFSSLSEATDKVLERSAKGALTISLPPSFAIQWLVPRLSDFNNQEPDIDVRIKAVDMDEGSLTEDVDVAIYYGRGNWPGLRVELLYQEQLLPLCSPQVLLNEKPLATIDDLRFHTLLHDTSRKDWKQFVKHYELAGMNVNQGPIFSHSTMVLQAAAHGQGIALGNNVLAQPELDAGRLVAPFEEVLVSKNAFYLVCNEKQADTGRIATFREWILSKARSEQEIVDDE
- soluble on expression in E. coli: soluble

Sequence: MSLKPKYKQIIDDIISQIDSGDLEQGMQLPSQRDMASLYQVNRSTVIQALDILKSQGIIEGREKQRLYVSGNTWHTYIKNNINWQNYISHSTTKNNQYFVQQINKLEFHTNMIRLGTGELAPDLIPNEQFKEILSKCHTPVLNTNYEPPQGNLKLREAVAQYMQKSGVSCTVDHICITSGALQGLKLIADGLLIPQSKIIVESPSYINSIRTWHNMRADIQQISISDIKSNINNIFKAQSQYTNSIFYCIPTLHNPTQHSYSTEEKQKIIMQCEQHGIPIVEDNVYGDLYFNHERPKPLKSFDTNDNILYLNSLSKTVSPGLRVGWIVAKPSVAAHLADLKMQNDYGASSISQYIATQWLTHPQYHDQHLKMLKNQLLIKRNLFLESLKKYFSDFGSWSTPEGSFYIWFQFKFSIDMKRLFDEAIAENILINPGEVYDKDARDCIRFSYAYVDAEDIDETLKHLSKIIQTRFTPPSSHIGKGNEGHHHHHH
- soluble on expression in E. coli: not soluble

Sequence: MGLERFNGVRVDDAERALLTCCRSLRWARRVADHRPYPDLDALLAAADEAAYDLAPADLAEALAGESLTLLPDDAYSVAHTALSAAHAAYESRFGHVFVICLDNAPPGEALDQVLAGIRSRLTNDREEERVLAAEELRRLARGRLARLVRDFSPRPALQRTPLEHHHHHH
- soluble on expression in E. coli: not soluble

Sequence: MGALERFGVDFITVDQGNGQWDIQAIEINLRKGGTTHPFMTLKLLTNGRYELSTGLFYSQQGRPKYYIATDNLQKDRYRGLLPNDLMDIIAHHRLHFDSCTETGTVFHLMGCLSQFGKLGLTSIGDSPQQAEDIYNKVVKVLDEETRVNNKQFPLFSDYTFPNLEHHHHHH
- soluble on expression in E. coli: not soluble

Sequence: MNVGLSAEVRYHWFREHLVVVGDWHRLSPSERDRLRHQPMPDEAAQSLRVDLSPWSCGMVFSELLGADLTRFGLCYLAPAEVPASDLTRLGRRLREEFPLLDSQVDSGAEGFELVVHGQPEESPALEVGPFADENALIAALLQRPHSLFERGLLRLFHGRCGGRARWGVWLHHLVADADFASVLLARLAVLNADPTTEAAAPEFGFLQQQWRLERQLRERRTRLEDYWSERGEAFRELASLPWAERASHCEDFRLAATPGGGEAALLTRLACALALALASQGATGKVLALTPVSLRSRRGTAVSGCWLNLVPLLLDAATAEDTFERHRLEAFEHSLLPAEAIAERAGLRYADAQVMINVIDQPFHSAGFIHRPTLKSRLPLTLTLVRRDDGGWDASLASRFGRERTLALAAAMAEALRPC
- soluble on expression in E. coli: not soluble

Sequence: MAAAAELRLLEKSLGLKPGNKYSAQGERQIPVLQTNNGPSLMGLSTIATHLVKQASKEHLLGSTAEEKAMVQQWLEFRVTRVDGHSSKEDTQTLLKDLNSYLEDKVYLAGHNITLADILLYYGLHRFIVDLTVQEKEKYLNVSRWFCHIQHYPDIRQHLSSIVFIKNRLYANSH
- soluble on expression in E. coli: not soluble
